Assay results from patent US20180066318A1 (INSTITUT PASTEUR, published 2018).

Molecular target: T1, in vitro translated HA-tagged NEMO (UniProt Q9Y6K9 1-419)
T1 construct: Negative control in the pull-down; made in TNT reticulocyte lysate; also called HA-NEMO; not shown: HA tag
Experiment: GST pull-down of in vitro translated protein, anti-HA blot
Excerpt: FIGS. 1a-1d: binding of CARMA1 SH3 domain to E-Syt2. GST pull-down assays show direct interaction between E-Syt2 and SH3 domains. Schematic representation of CARMA1 (a) and E-Syt2 (b) mutant constructs. (c) upper panel: pull-down assays of the interactions between CARMA1 SH3 domain (GST-SH3c), Vav SH3 domain (GST-SH3v) or GST and in vitro translated HA-tagged E-Syt2, or NEMO in TNT® reticulocytes lysate systems. Ten percent of the input TNT lysates was also run on the PAGE and immunoblot with anti-HA to determine the relative binding capacity. […] Jurkat T cells were incubated with Raji B cells and coated with medium alone or with SEE. At 10 minutes, cells were fixed and E-SYT2 localized by immunofluorescence and confocal microscopy, using anti-A-SYT2 antibody, as described in the experimental procedure. The corresponding Nomarski images are shown on the bottom panels. Scale Bars represent 1 μm. (d) ESYT2 localized in microclusters Jurkat cells were settle onto glass coverslips coated either with anti-CD3, anti-CD28 or both and fixed 5 min of stimulation. The images of E-Syt2, PKCθ and TCT staining were taken by confocal microscopy.

T1 sequence (Q9Y6K9 whole entry): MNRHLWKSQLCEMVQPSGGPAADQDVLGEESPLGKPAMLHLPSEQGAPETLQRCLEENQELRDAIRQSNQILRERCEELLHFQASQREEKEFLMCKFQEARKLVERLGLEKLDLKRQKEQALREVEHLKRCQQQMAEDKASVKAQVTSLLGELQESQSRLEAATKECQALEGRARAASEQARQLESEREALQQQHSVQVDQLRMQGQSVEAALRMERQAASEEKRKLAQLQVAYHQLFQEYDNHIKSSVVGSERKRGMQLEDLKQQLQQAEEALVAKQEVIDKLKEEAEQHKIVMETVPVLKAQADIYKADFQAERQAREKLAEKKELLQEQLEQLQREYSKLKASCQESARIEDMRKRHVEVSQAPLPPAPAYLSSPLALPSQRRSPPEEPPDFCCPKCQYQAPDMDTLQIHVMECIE

binding result: no binding
B1: GST fused to the Vav SH3 domain (GST-SH3v) (other, UniProt P15498 782-845, looked up)
chain: KYFGTAKARYDFCARDRSELSLKEGDIIKILNKKGQQGWWRGEIYGRVGWFPANYVEEDYSEYC
notes: domain: SH3 (C-ter Vav); also called pGEX-4T-SH3 (C-ter Vav); not shown: glutathione S-transferase of vector pGEX-4T
